From patent EP4796567A2 (Nepenthe Bioscience, LLC, dated 2026)
Numbering of substitutions follows the chain as printed. Values belong to the binder of their own block, whether it stands above or below them.

What was measured:
CD79 [1] = molecular target: T1, CD79 (UniProt P11912 33-143; P40259 29-159, limits assumed); assay: binding kinetics to CD79; method not named (antibody is the 'Loading Sample')
T1 construct: also called CD79 antigen; soluble biotinylated CD79 antigen
T1 sequence (looked up) 1: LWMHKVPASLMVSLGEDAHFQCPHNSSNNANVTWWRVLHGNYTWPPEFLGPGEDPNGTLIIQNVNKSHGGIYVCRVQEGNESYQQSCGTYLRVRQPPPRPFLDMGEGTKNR
T1 sequence (looked up) 2: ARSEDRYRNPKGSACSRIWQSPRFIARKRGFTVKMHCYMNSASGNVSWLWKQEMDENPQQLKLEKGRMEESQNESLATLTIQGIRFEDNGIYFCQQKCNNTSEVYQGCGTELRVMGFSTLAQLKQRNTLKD

CD79 [2] = molecular target: T1, CD79; assay: binding kinetics of full length IgG to CD79; method not named (antibody is the 'Loading Sample')
CD79 [3] = molecular target: T1, CD79; assay: antigen binding kinetics; method not named (antibody is the 'Loading Sample')

- Kd (CD79 [1]): 45 nM
- koff (CD79 [1]): 0.0041 s⁻¹
- kon (CD79 [1]): 91000 M⁻¹ s⁻¹
- Kd (CD79 [2]): 5.1 nM
- koff (CD79 [2]): 0.000429 s⁻¹
- kon (CD79 [2]): 84100 M⁻¹ s⁻¹
- Kd (CD79 [3]): 9.22 nM
- koff (CD79 [3]): 0.000384 s⁻¹
- kon (CD79 [3]): 41700 M⁻¹ s⁻¹
B1: humanized anti-CD79 antibody H1L2 (antibody, V domains shown)
VH: QVQLVQSGAEVKKPGASVKVSCKASGYAFSYSWMNWVRQAPGQGLEWMGRIYPENGDTNYNGKFKGRVTMTRDTSISTAYMELSRLRSDDTAVYYCARWVYGYPHFDYWGQGTLVTVSS
VL: DVVMTQSPLSLPVTLGQPASISCKSSQSLLDSDGKTYLNWLQQRPGQSPRRLIYLVSKLDSGVPDRFSGSGSGTDFTLKISRVEAEDVGVYYCWQGTHFPFTFGGGTKVEIK
notes: also called LB495/PRI47; PRI43/PRI47

- Kd (CD79 [3]): 0.837 nM
- koff (CD79 [3]): 5.11e-05 s⁻¹
- kon (CD79 [3]): 61000 M⁻¹ s⁻¹
B2: engineered anti-CD79 antibody LB632/519 (antibody, V domains shown)
VH: B1 VH with N55S, N61A, Y103L
VL: B1 VL with F99L
notes: Both NG motifs of VH CDR2 engineered; Produced in 293 cells by transient transfection; also called LB632/LB519

- Kd (CD79 [2]): 2 nM
- koff (CD79 [2]): 0.000159 s⁻¹
- kon (CD79 [2]): 79700 M⁻¹ s⁻¹
- Kd (CD79 [3]): 0.706 nM
- koff (CD79 [3]): 4.14e-05 s⁻¹
- kon (CD79 [3]): 58700 M⁻¹ s⁻¹
B3: humanized anti-CD79 antibody LB517/LB519 (antibody, V domains shown)
VH: B1 VH with Y103L
VL: B1 VL with F99L
notes: Full length IgG produced from 293 cells; also called hCur14 FALA
